The values that follow come from patent US7022666.

The target of this experiment is LIF receptor/gp130 heterodimer (rat) (UniProt O70535). Briefly: cell-based or functional assay.
Sequence of UniProt O70535 (O70535 44-1093, chain 1 of 2): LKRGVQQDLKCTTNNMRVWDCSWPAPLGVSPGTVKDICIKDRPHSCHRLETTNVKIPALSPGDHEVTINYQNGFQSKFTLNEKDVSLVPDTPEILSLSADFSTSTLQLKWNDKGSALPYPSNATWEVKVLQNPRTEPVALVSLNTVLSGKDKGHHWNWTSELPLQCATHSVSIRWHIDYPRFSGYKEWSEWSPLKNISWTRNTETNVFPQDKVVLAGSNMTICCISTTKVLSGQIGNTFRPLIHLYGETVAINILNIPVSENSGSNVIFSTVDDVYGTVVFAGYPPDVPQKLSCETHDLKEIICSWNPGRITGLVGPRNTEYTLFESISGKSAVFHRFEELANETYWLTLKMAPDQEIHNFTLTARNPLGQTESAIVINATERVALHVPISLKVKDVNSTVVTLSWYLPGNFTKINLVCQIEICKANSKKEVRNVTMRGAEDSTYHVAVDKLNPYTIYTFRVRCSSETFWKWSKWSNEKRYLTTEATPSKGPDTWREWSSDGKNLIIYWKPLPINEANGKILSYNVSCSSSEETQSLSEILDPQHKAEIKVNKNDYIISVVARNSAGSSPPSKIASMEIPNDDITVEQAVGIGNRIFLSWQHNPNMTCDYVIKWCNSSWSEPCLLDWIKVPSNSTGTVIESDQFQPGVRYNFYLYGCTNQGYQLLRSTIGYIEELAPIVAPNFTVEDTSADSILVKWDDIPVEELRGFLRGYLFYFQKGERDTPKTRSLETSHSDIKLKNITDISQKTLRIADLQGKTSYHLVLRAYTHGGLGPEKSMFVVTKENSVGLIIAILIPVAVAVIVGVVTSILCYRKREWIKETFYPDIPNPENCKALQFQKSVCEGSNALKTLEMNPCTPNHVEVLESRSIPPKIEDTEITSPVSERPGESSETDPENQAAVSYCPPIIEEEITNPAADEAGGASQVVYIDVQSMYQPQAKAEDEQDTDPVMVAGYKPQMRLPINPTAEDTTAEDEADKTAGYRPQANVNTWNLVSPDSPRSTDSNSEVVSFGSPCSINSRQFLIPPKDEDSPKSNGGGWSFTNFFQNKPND
Sequence of UniProt O70535 (P40190 23-918, chain 2 of 2, further chain): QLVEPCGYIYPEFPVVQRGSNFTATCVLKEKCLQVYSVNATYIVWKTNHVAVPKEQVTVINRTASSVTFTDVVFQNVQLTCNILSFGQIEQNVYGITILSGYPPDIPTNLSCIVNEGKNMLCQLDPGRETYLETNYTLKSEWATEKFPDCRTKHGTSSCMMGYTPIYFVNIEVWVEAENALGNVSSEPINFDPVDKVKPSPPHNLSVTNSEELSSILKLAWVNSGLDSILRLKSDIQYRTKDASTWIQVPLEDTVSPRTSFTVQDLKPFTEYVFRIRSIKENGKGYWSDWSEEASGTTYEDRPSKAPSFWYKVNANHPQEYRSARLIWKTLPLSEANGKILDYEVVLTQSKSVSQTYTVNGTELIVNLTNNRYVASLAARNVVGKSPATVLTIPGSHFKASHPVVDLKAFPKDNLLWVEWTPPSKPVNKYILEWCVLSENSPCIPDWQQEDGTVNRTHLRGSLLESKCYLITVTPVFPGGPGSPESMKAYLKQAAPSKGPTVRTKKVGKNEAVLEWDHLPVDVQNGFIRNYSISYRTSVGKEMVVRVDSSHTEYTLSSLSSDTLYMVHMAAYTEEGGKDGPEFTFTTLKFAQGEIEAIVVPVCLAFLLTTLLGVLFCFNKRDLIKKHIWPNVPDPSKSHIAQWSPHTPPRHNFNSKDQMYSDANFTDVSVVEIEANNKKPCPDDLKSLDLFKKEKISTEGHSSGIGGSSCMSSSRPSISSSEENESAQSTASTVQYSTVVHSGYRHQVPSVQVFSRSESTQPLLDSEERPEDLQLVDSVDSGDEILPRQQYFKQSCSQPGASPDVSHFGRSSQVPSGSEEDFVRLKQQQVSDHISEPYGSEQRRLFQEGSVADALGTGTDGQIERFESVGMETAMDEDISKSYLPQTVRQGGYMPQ

“recombinant leukemia inhibitory factor (ligand)” displayed a conversion of metanephric mesenchyme into epithelia (lowest active dose) of 0.2 nM.
